Measurements reported in patent US20160039936A1, “FIBROBLAST GROWTH FACTOR RECEPTOR INHIBITION FOR THE TREATMENT OF DISEASE” (UNIVERSITY OF MIAMI, priority 2011, published 2016).

Experiments:
Format in all cases: cell-based, rat
isolated NRVM [1] = assay: Signaling immunoblots in NRVM (p-ERK, Egr-1, p-NFAT, p-Akt); conditions: for Egr-1 levels / phosphorylated ERK: 30 and 60 minutes
Experimental: (§1) NRVM were scraped from a 6 cm-plate using 400 μl CHAPS extraction buffer [(20 mM Tris-HCl pH7.5, 500 mM NaCl, 0.5% CHAPS, protease inhibitor cocktail (Roche), protein phosphatase inhibitors (Sigma-Aldrich)] and incubated on ice for 15 minutes. The cell lysate was centrifuged at 14,000 rpm and 4° C. for 15 minutes and the supernatant boiled in sample buffer and analyzed by SDS-PAGE and immunoblotting as described before (Faul et al., Cell Biol., 169(3):415-424, 2005; Faul et al., Mol. Cell Biol., 27(23):8215-8227, 2007). For protein extraction from mouse hearts, tissue was isolated, minced and homogenized in CHAPS extraction buffer at 1:10 (w:v) and protein lysates were prepared as described above. Antibodies to sarcomeric α-actinin (EA-53; Sigma-Aldrich; 1:1000), total (Cell Signaling; 1:1000) and phospho-ERK (Cell Signaling; 1:1000), total and phospho-NFAT-c1 (Santa Cruz Biotechnology; 1:200), total and phospho-Akt (Cell Signaling; 1:1000 and 1:2000), and GAPDH (Abcam; 1:10,000) were used as primary antibodies and horseradish peroxidase conjugated goat-anti-mouse and goat-anti-rabbit (Promega; 1:20,000) were secondary antibodies.

isolated NRVM [2] = assay: Hypertrophic marker expression in NRVM (RT-PCR, α-actinin immunoblot); conditions: for α-actinin protein levels: 48 h, immunoblotting; for expression of ANP and BNP / expression of medium chain acyl-CoA dehydrogenase (MCAD) / expression of α-myosin heavy chain (α-MHC) / expression of β-myosin heavy chain (β-MHC): RT-PCR
Experimental: RNA was purified from isolated NRVM using the RNeasy kit (Qiagen), and from mouse cardiac and renal tissue using 1 ml per 100 mg tissue TRIzol (Invitrogen), following the manufacturers' protocol. Prior to RT-PCR, total RNA samples were digested with DNase I (Roche) and RNA was transcribed into cDNA using Superscript II (Invitrogen). For RT-PCR, 100 ng cDNA, AmpliTaq Gold DNA polymerase (Applied Biosystems) and sequence specific primers were used. 30 cycles (95° C., 5 minutes-53° C., 30 seconds-72° C., 30 seconds) were run on a GeneAmp PCR System 9700 (Applied Biosystems) and reactions were analyzed on a 2% agarose gel. Ethidium bromide signals were captured with a Bio-Rad Gel Doc XR system and quantified by densitometry using ImageJ software (NIH). Values were normalized to GAPDH signals and cDNAs from three independent experiments were analyzed. For nested PCR, 100 ng cDNA were used in the first run (15 cycles) with sequence specific outside primers. Five percent of the reaction was used as template for the second run (25 cycles) with sequence specific inside primers, and the total reaction was analyzed by agarose gel electrophoresis.
as §1

NFAT = NFAT gene reporter assay in NRVM; conditions: FGF 25 ng/ml, 2 hours
Experimental: The assay was done as described previously (Kuhn et al., 2009). Briefly, 24 hours after plating, NRVM were serum-starved and infected by an adenovirus (AdNFAT-luc, 20 moi) carrying a firefly luciferase construct under the transcriptional control of three consensus NFAT binding sites (Biomyx). To enable normalization of the ensuing measurements, NRVMs were also infected with an adenovirus (AdRenilla, 10 moi) encoding a renilla luciferase under the transcriptional control of a CMV promoter. Cells were incubated in FGF23 or FGF2 at 25 ng/ml for 2 hours after pre-treatment with or without cyclosporine A (1 μg/ml; Sigma-Aldrich), AZD4547 (5 nM; ChemieTek), or anti-FGFR4/U3-11 (U3Pharma; 10 μg/ml) for 60 minutes. Chemiluminescence was detected and quantified in 4×10^5 cells using the Dual-Luciferase Reporter Assay System (Promega) according to the manufacturer's instructions, and Infinite M200 PRO reader (Tecan). Firefly luciferase activities were then normalized to renilla luciferase activities. All experiments were conducted in triplicates and repeated three times.

Row | Molecule | Egr-1 levels (isolated NRVM [1]) | phosphorylated ERK (isolated NRVM [1]) | phosphorylated Akt (isolated NRVM [1]; after 60 minutes) | phosphorylated NFAT (isolated NRVM [1]; after 60 minutes) | α-actinin protein levels (isolated NRVM [2]) | expression of ANP and BNP (isolated NRVM [2]) | expression of medium chain acyl-CoA dehydrogenase (MCAD) (isolated NRVM [2]) | expression of α-myosin heavy chain (α-MHC) (isolated NRVM [2]) | expression of β-myosin heavy chain (β-MHC) (isolated NRVM [2]) | luciferase activity (NFAT)
1 | FGF2: recombinant mouse FGF2 (Ala11-Ser154) (R&D Systems) (protein) ALPEDGGAAFPPGHFKDPKRLYCKNGGFFLRIHPDGRVDGVREKSDPHVKLQLQAEERGVVSIKGVCANRYLAMKEDGRLLASKCVTEECFFFERLESNNYNTYRSRKYSSWYVALKRTGQYKLGSKTGPGQKAILFLPMSAKS | increase | robust increase | modest increase | had no effect | increase | increased | decreased | decreased | increased | did not increase
2 | FGF23: recombinant mouse FGF23, 6His-tagged Tyr25-Val251 (Arg179Gln) (R&D Systems) (protein, left off: small tags and cut ends) YPDTSPLLGSNWGSLTHLYTATARTSYHLQIHRDGHVDGTPHQTIYSALMITSEDAGSVVITGAMTRRFLCMDLHGNIFGSLHFSPENCKFRQWTLENGYDVYLSQKHHYLVSLGRAKRIFQPGTNPPPFSQFLARRNEVPLLHFYTVRPRRHTQSAEDPPERDPLNVLKPRPRATPVPVSCSRELPSAEEGGPAASDPLGVLRRGRGDARGGAGGADRCRPFPRFV | only a modest increase | only a modest increase | – | modest decrease | increase | increased | decreased | decreased | increased | significant elevation
